These results are taken from patent publication US20110014200A1.

A value given as a limit tells only on which side of the number the result lay.

Test [1] deals with wild-type human thyrotropin receptor (TSHR) (human) (UniProt P16473). Description: inhibition of 125I-TSH binding to monolayers of cells expressing human TSHR.
The target in test [2] is gain-of-function TSHR mutant I486F (human) (UniProt P16473). Description: cell-based or functional assay.
Test [3] concerns the target wild-type human thyrotropin receptor (TSHR) (human) (UniProt P16473). Description: cell-based or functional assay.
Test [4] has as its target gain-of-function TSHR mutant I568T (human) (UniProt P16473). The test is described as follows: cell-based or functional assay.
The target of test [5] is gain-of-function TSHR mutant S281I (human) (UniProt P16473). Description: cell-based or functional assay.
Test [6] deals with gain-of-function TSHR mutant A623I (human) (UniProt P16473). The test is described as follows: cell-based or functional assay.

As to “monoclonal antibody CS-17 (produced by hybridoma CS-17, ATCC accession number PTA-8174)”, in test [1], the percent suppression of TSH binding at 10 µg/ml was 35%. For the same substance, the CS-17 concentration producing half-maximal inhibition (IC50) of constitutive cAMP in test [2], in test [3], in test [4], in test [5] and in test [6] was 1 µg/mL each time. The substance also registered a half maximal inhibitory concentration for TSHR constitutive activity (intracellular cAMP) in test [3] of 6.7 nM. The substance further returned an inverse agonist activity at 10 µg/ml (percent) in test [3] of 60 to 90%. Moreover, the reduction of constitutive activity at 10 µg/ml (percent) in test [3] was above 60%.
